Measured values reported in paper PMC7382298 (Immunity, 2020).
Substitutions are numbered along the chain they refer to. Names and notes keep the numbering of the source.

Columns and labels:
crystal structure = biological target: the molecule itself; test: crystal structure
[1] = biological target: T1, GST-Mouse full-length GSDMD harboring E369K/L370A mutations (mouse, UniProt Q9D8T2 1-487, E369K | L370A); test: pull-down
T1 sequence (looked up): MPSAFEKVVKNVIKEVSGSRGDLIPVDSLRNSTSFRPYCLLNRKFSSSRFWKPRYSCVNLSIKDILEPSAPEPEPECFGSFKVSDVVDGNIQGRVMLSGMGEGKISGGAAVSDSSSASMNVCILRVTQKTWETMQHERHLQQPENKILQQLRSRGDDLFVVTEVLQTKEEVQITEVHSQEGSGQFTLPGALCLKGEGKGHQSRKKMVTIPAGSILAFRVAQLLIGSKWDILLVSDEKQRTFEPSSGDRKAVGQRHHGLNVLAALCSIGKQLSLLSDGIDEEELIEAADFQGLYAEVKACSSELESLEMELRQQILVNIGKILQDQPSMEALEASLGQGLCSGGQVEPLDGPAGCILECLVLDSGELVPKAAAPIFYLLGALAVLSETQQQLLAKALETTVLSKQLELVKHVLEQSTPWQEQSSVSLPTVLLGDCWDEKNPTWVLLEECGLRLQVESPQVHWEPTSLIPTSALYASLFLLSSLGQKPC

[2] = biological target: T2, GST-Mouse full-length GSDMD harboring V367A/E369K mutations (mouse, UniProt Q9D8T2 1-487, V367A | E369K); test: pull-down
T2 sequence (looked up): T1 sequence (looked up) with V367A, A370L

[3] = biological target: T3, GST-Human GSDMD harboring truncation of residues 243-278 (human, UniProt P57764 1-484, truncation of residues 243-278); test: pull-down
T3 sequence (looked up): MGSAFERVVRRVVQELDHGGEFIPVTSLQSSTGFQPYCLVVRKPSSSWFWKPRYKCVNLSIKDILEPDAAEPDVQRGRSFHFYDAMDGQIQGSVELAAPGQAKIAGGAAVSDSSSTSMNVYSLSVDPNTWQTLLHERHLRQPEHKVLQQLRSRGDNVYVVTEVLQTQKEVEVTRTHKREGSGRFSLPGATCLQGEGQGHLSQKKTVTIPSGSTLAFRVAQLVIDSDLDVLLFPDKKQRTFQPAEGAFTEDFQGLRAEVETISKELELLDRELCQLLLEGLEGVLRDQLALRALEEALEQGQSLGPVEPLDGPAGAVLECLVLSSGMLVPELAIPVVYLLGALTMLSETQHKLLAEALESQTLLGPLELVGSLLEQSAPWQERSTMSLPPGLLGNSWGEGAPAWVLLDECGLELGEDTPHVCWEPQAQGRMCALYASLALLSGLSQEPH

[4] = biological target: T4, GST-Mouse full-length wild type GSDMD (mouse, UniProt Q9D8T2 1-487); test: pull-down
T4 sequence (looked up): T1 sequence (looked up) with K369E, A370L

[5] = biological target: T5, GST-Human full-length wild type GSDMD (human, UniProt P57764 1-484); test: pull-down
T5 sequence (looked up): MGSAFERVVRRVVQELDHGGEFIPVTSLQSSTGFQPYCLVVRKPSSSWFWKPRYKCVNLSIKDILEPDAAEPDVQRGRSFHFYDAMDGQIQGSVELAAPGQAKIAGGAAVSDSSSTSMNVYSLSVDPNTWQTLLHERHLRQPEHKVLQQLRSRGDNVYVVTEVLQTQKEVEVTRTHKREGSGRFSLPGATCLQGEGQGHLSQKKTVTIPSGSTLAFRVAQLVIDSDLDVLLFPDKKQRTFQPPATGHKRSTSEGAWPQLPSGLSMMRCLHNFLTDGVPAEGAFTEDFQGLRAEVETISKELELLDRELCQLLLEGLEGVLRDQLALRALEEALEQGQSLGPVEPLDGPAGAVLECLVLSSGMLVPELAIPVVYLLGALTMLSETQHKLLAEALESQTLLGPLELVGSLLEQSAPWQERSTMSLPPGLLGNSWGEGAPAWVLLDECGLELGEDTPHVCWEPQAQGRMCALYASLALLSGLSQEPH

[6] = biological target: T6, GST-Mouse full-length GSDMD harboring L361A/V367A/L370A mutations (3A mutant) (mouse, UniProt Q9D8T2 1-487, L361A | V367A | L370A); test: pull-down
T6 sequence (looked up): T1 sequence (looked up) with L361A, V367A, K369E

[7] = biological target: T7, GST-Mouse full-length GSDMD harboring L306A/L310A mutations (2A mutant) (mouse, UniProt Q9D8T2 1-487, L306A | L310A); test: pull-down
T7 sequence (looked up): T1 sequence (looked up) with L306A, L310A, K369E, A370L

[8] = biological target: T8, human full-length wild type gasdermin D (hGSDMD) (human, UniProt P57764 1-484); test: SEC
T8 sequence (looked up): T5 sequence (looked up)

[9] = biological target: T9, human GSDMD harboring truncation of residues 243-278 (human, UniProt P57764 1-484, truncation of residues 243-278); test: SEC
T9 sequence (looked up): T3 sequence (looked up)

[10] = biological target: T10, mouse full-length wild type gasdermin D (mGSDMD) (mouse, UniProt Q9D8T2 1-487); test: SEC
T10 sequence (looked up): T1 sequence (looked up) with K369E, A370L

- binding result [1]: binds
- binding result [2]: binds
- binding result [3]: binds
- binding result [4]: binds
- binding result [5]: binds
- binding result [6]: binds
- binding result [7]: binds
- binding result [8]: binds
- binding result [9]: binds
- binding result [10]: binds
B1: human caspase-1 (hCASP1) catalytic domain p22/p10, C285A mutant (enzyme)
chain 1: NPAMPTSSGSEGNVKLCSLEEAQRIWKQKSAEIYPIMDKSSRTRLALIICNEEFDSIPRRTGAEVDITGMTMLLQNLGYSVDVKKNLTASDMTTELEAFAHRPEHKTSDSTFLVFMSHGIREGICGKKHSEQVPDILQLNAIFNMLNTKNCPSLKDKPKVIIIQAARGDSPGVVWFKDSVGVSGNLSLPTTEEFEDD
chain 2: AIKKAHIEKDFIAFCSSTPDNVSWRHPTMGSVFIGRLIEHMQEYACSCDVEEIFRKVRFSFEQPDGRAQMPTTERVTLTRCFYLFPGH
- binding result (crystal structure): binds
